Measured values: patent publication US7871610B2, “Antibodies to Tie1 ectodomain” (Dyax Corp., priority 2003, dated 2011)

Assays:
Tie1 = Tie1 (Homo sapiens, UniProt P35590); assay: Immunoprecipitation from HUVEC lysates; format: binding; set-up: endogenous in cells; host or cells: HUVEC; settings: 5 μg/ml antibody
Protocol: The conclusion from this study was that platelets represent a large pool of Tie-1 immunoreactivity which could present a problem for development of Tie1 as a therapeutic target. […] Both, activated and inactivated platelets were tested. Anti-Tie-1 antibodies B2, D11, E3, the goat polyclonal AF619 (R&D) and negative control antibodies anti-FITC and anti-Streptavidin were used. HUVECS were retrieved from culture dishes by trypsinization and platelets were prepared with the platelet GelSep kit (Biocytex, Marseille, France) kit according to the guidelines of the manufacturer. Per immunoprecipitation experiment 3-5e10^6 and 3e10^8 cells platelets were used for each antibody tested. Platelets and cells were washed with PBS and spun down at 1400 rpm for 4 minutes and supernatant was removed. Then cells were lysed in 1 ml lysis buffer containing 50 mM Tris HCL pH 7.5, 150 mM NaCl, 0.5% Deoxycholic acid (DOC) and 0.5% NP-40 for 5 minutes. The lysed cells were spin down for 10 minutes at 14.000 rpm and 5 μg/ml antibody was added to the supernatant and incubated at 4° C. on a rotator. 100 μl/sample protein A beads (Uppsala, Sweden) were washed 3 times with lysis buffer (centrifugation speed: 1.5 seconds, 2000 rpm) then cell lysates incubated with antibody were added for 30 minutes 4° C. […] In Western blotting Tie-1 was detected with the polyclonal goat anti-Tie-1 antibody.

Mouse Tie 1-Fc = target: T1, Mouse Tie 1-Fc (Mus musculus, UniProt Q06806); assay: BIAcore, coated E3 IgGs with recombinant mouse Tie-1 Fc; format: binding; settings: IgG, mouse Tie1-Fc
T1 sequence (Q06806 23-755 limits assumed): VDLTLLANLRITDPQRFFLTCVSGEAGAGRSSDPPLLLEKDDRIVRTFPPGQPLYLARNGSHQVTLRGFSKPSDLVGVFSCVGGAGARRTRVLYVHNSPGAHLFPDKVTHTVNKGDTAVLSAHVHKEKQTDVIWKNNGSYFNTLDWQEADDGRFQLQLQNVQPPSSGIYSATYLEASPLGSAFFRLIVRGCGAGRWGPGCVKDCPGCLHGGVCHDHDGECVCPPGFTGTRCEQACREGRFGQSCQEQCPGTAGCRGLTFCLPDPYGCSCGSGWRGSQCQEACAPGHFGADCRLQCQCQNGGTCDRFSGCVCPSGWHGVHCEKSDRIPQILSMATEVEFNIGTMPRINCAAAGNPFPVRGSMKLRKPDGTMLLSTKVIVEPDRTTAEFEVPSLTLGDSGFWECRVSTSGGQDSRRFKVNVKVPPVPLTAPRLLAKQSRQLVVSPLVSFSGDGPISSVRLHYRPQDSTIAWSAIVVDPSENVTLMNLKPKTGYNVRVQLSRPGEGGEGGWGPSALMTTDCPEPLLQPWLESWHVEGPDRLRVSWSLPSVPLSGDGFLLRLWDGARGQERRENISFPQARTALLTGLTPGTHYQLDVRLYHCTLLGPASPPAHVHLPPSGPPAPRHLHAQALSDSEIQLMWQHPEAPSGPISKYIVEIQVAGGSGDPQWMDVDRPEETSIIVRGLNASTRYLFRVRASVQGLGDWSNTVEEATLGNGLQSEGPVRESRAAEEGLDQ
Protocol: In order to evaluate if the binding behavior had been affected in any way by the conversion of the somatic mutations back to germline, the germlined antibody was produced and tested as a IgG. The germlined E3 was reformatted to an IgG as described. This was then used to transiently transfect HEK293T cells using established procedures. The IgG was purified from the culture supernatant using protein A column chromatography using established procedures and the subsequent IgG was then tested for binding activity using surface plasmon resonance (BIAcore). The germlined E3 IgG1 stock solution 0.63 mg/ml (2146-002) was diluted 1/50 in a buffer of pH 4.5 and the parental E3 IgG1 stock solution 0.56 mg/ml (2143-001) was diluted 1/50 in a buffer of pH 4.5. The IgG were directly coated via onto a CM5 chip. The surface of the chips was activated with a 7 minute pulse of 0.05M NHS/0.2M EDC and the IgG was flowed over until 780RU germlined E3-IgG and 728 non germlined E3 IgG was coated onto the surface. All flow cells were subsequently deactivated with a 7 minute pulse of 1M ethanolamine hydrochloride pH8.5. All analysis was performed in HBS buffer. […] All samples were run and analyzed in duplicate
Sensorgrams were analyzed using the simultaneous ka/kd fitting program with 1:1 model in the BIAEVALUATION™ software 3.1.

Tie1, sequence (P35590 22-1138): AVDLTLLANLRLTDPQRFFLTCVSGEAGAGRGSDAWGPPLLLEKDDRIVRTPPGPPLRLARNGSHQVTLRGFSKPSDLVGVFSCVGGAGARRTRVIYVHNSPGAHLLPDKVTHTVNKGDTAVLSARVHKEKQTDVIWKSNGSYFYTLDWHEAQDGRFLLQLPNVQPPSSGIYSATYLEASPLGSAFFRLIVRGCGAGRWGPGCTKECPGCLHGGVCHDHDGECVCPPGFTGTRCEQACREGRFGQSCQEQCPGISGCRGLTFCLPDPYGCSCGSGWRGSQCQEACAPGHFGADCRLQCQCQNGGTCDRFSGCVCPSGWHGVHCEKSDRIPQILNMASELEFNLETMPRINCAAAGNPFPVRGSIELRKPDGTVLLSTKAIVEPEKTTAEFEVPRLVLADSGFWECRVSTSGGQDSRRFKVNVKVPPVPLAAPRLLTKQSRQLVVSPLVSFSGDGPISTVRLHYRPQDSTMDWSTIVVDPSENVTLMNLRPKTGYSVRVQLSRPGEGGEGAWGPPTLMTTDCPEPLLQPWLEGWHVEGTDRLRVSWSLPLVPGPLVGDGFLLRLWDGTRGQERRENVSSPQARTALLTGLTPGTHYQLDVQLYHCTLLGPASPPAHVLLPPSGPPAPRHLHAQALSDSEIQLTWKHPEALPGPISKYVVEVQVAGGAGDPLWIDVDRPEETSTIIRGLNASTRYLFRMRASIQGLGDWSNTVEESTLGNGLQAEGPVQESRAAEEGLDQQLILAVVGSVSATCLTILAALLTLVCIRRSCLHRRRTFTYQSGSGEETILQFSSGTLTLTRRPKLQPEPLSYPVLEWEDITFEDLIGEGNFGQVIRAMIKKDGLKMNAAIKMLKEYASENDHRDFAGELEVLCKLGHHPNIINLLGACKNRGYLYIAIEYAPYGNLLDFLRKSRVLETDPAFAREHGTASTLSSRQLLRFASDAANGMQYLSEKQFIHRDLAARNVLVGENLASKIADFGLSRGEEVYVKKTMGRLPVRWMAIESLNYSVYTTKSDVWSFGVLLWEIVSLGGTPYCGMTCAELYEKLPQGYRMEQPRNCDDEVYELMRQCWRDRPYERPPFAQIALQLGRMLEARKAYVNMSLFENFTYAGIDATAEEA

B1: E3: human anti-Tie1 antibody from Fab phage library; HC SEQ ID NO:114, LC SEQ ID NO:116 (antibody, V domains shown)
VH: EVQLLESGGGLVQPGGSLRLSCAASGFTFSMYGMVWVRQAPGKGLEWVSVISPSGGNTGYADSVKGRFTISRDNSKNTLYLQVNSLRAEDTAVYYCARAPRGYSYGYYYWGQGTLVTVSSASTKGPSVFPLAPSSKSTSGG
VL: DIQMTQSPLSLSASVGDRVTITCRASQGIGHYLAWYQQKPGKVPKLLIYTASTLQSGVPSRFSGSGSGTDFTLTINSLQPEDVATYYCQQFNSYPHTFGQGTRLDIK
modifications: Synthetically generated peptide
- immunoprecipitation of Tie-1 from HUVEC (Tie1): able to immune precipitate Tie-1 in HUVEC
- effect of germlining on binding activity (Mouse Tie 1-Fc): minimal impact on the binding activity
